How the values were obtained:
Aα392-610 sub-fragment = molecular target: T1, Aα392-610 sub-fragment (Homo sapiens, UniProt P02671); experiment: ELISA and kinetic analysis of incorporation into immobilized Aα392-610 sub-fragment; type: biochemical
T1 construct: (residues Aα221-391 and Aα392-610, respectively); made in house; host or cells: E. coli, pET20b expression vector
T1 sequence (P02671 411-629): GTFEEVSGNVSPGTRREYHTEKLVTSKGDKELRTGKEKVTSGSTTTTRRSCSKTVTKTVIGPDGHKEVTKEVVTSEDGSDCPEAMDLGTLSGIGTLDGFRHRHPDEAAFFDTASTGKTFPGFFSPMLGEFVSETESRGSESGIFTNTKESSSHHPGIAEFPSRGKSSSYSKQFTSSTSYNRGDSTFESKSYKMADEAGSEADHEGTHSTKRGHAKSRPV
Experimental: (§1) The interaction between thymosin β4 and fibrin(ogen) and its fragments in the presence or absence of FXIIIa was studies by ELISA using plastic microliter plates. Wells of microliter plates were coated overnight at […] with fibrinogen and fibrin at 10 μg/mL or with the recombinant fragments of 20 μg/ml, all in 0.1 M NaHCO3 buffer, pH 8.3. Fibrin was made by addition to the wells of a mixture containing 10 μg/mL fibrinogen 1 NIH u/ml thrombin and 400 u/ml aprotinin, followed by overnight incubation at +4° C. The wells were then blocked by incubation with Super Blocker (Pierce) at 37° C. for 1 h. Following washing with TBS containing 0.05% Tween-20 (TBS-Tween), the indicated concentrations of thymosin β4, FXIII, FXIIIa(Thr) and FXIIIa(Ca) were added to the wells and incubated for 2-2.5 h at 37° C. Bound (incorporated) thymosin β4 was detected by the reaction with rabbit anti-thymosin β4 serum and peroxidase-conjugated anti-rabbit IgG. A TMB Microwell Peroxidase Substrase was added to the wells, and the incorporated thymosin β4 was measured spectrophotometrically at 450 nm.
To analyze kinetics of the incorporation of thymosin β4 into different fibrin(ogen) fragments, they were immobilized onto the wells of microliter plates (as described above, except that the concentration of all fragments was 20 μg/mL) and incubated with several concentrations of thymosin β4 in the presence of 10 μg/L thrombin-activated factor XIIIa. The incubation mixtures were inhibited every 15 min during 1 hour of incubation by the addition of iodacetamide to final concentration 10 mM. Incorporated thymosin β4 at each time point was detected with rabbit anti-thymosin β4 serum as described above. The initial rates of the reaction of incorporation (V) at different concentrations of thymosin β4 were determined from the slopes of the reaction time course plots and expressed as tangent α=A450/t (min), where A450 represents absorbance at 450 nm in optical units (o.u) which is proportional to the amount of incorporated thymosin β4. […]

fibrin = molecular target: T2, fibrin (Homo sapiens, UniProt P02671); experiment: Solid-phase binding assay (ELISA), immobilized fibrin
T2 construct: purchased Enzyme Research Laboratories (South Bend, Ind.); host or cells: fibrin generated in the well or tube from the purchased fibrinogen with bovine thrombin
T2 sequence (P02671 36-629 limits assumed): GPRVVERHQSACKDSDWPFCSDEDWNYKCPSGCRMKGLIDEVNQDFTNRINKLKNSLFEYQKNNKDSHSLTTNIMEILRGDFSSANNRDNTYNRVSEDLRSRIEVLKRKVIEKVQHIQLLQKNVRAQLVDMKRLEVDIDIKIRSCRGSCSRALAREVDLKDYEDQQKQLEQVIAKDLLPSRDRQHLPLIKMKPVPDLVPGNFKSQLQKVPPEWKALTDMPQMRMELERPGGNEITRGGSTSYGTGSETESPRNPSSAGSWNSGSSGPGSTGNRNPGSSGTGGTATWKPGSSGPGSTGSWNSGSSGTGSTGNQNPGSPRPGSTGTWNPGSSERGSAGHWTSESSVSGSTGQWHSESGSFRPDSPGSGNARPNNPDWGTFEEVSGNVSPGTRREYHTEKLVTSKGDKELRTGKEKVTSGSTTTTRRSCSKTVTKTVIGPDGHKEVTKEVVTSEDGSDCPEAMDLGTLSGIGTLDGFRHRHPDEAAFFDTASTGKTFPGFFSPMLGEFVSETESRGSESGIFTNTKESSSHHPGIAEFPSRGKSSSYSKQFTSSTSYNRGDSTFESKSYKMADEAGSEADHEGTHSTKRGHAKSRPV
T2 sequence (P02675 45-491 partner limits assumed): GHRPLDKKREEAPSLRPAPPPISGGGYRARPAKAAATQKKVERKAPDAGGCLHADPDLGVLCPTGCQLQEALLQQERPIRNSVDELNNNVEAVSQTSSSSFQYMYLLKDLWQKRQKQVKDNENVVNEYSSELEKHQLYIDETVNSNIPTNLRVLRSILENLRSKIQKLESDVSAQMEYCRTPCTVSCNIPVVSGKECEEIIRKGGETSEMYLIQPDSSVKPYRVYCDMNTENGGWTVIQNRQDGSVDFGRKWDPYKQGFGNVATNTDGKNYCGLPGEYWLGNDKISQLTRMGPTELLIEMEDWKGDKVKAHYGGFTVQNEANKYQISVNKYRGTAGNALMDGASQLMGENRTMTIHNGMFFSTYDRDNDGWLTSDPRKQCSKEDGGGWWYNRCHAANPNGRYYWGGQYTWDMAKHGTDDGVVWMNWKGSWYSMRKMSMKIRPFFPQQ
T2 sequence (P02679 27-437 isoform P02679-2 partner limits assumed): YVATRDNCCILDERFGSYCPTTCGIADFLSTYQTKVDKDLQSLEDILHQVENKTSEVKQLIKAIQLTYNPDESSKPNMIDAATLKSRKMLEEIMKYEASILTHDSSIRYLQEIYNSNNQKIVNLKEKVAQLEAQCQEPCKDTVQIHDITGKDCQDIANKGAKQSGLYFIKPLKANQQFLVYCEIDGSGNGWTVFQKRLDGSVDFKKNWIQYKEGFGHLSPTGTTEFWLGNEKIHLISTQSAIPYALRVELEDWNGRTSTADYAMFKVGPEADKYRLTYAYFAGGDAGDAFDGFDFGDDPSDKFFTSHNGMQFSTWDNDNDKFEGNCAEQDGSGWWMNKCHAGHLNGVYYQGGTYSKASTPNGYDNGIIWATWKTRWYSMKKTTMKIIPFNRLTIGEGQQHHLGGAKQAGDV
Experimental: as §1

- non-covalent interaction with Aα392-610 sub-fragment (ELISA) (Aα392-610 sub-fragment; non-activated factor XIII or without it): no significant non-covalent interaction
- incorporation into immobilized Aα392-610 sub-fragment (ELISA) (Aα392-610 sub-fragment; presence of factor XIIIa): incorporated effectively
- Km (Aα392-610 sub-fragment; thrombin-activated factor XIIIa, Lineweaver-Burk plot, read-out: apparent Michaelis constant (Km) for incorporation into the Aα392-610 sub-fragment): 8.6 ± 3.7 µM
- non-covalent interaction with immobilized fibrin (ELISA signal) (fibrin; absence of factor XIII or non-activated factor XIII): no significant non-covalent interaction
- factor XIIIa-mediated incorporation into immobilized fibrin (ELISA signal) (fibrin; factor XIII activated by CaCl2): higher than that into fibrinogen
Substance: thymosin β4

— US20100204147A1, “Methods For Delivering Thymosin Beta 4, Analogues, Isoforms and Other Derivatives” (REGENERX BIOPHARMACEUTICALS, INC., priority 2003, published 2010)
